Measurements published in article PMC10163920 (European journal of cell biology, 2022).
Ends that are not written are not given here.

Experiments:
Assay in all cases: fluorescence polarisation
[1] = target: Rabbit skeletal muscle actin (unlabeled actin monomers) (rabbit) (UniProt P68135)
profilin-1 (wild-type) = profilin-1 (wild-type) (UniProt P07737 1-140)
[2] = target: profilin-1 H120E (actin-binding impaired control) (UniProt P07737 1-140, H120E)
[3] = target: profilin-1 A20T (ALS-associated variant) (UniProt P07737 1-140, A20T)
[4] = target: profilin-1 C71G (ALS-associated variant) (UniProt P07737 1-140, C71G)
[5] = target: profilin-1 T109M (ALS-associated variant) (UniProt P07737 1-140, T109M)
[6] = target: profilin-1 M114T (ALS-associated variant) (UniProt P07737 1-140, M114T)
[7] = target: profilin-1 E117G (ALS-associated variant) (UniProt P07737 1-140, E117G)
[8] = target: profilin-1 G118V (ALS-associated variant) (UniProt P07737 1-140, G118V)
[9] = target: profilin-1 R136W (ALS-associated variant) (UniProt P07737 1-140, R136W)
[10] = target: profilin-1 Q139L (ALS-associated variant) (UniProt P07737 1-140, Q139L)
Sequence of profilin-1 Q139L (ALS-associated variant) (P07737 whole entry Q139L): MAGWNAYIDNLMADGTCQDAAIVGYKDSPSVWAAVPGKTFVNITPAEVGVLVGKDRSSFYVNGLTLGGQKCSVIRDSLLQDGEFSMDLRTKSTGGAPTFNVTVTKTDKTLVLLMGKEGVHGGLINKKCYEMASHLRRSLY

Sequence of profilin-1 T109M (ALS-associated variant) (P07737 whole entry T109M): as the sequence (P07737 whole entry Q139L) above, with T109M, L139Q counted along it
Sequence of profilin-1 G118V (ALS-associated variant) (P07737 whole entry G118V): as the sequence (P07737 whole entry Q139L) above, with G118V, L139Q counted along it
Sequence of profilin-1 H120E (actin-binding impaired control) (P07737 whole entry H120E): as the sequence (P07737 whole entry Q139L) above, with H120E, L139Q counted along it
Sequence of profilin-1 A20T (ALS-associated variant) (P07737 whole entry A20T): as the sequence (P07737 whole entry Q139L) above, with A20T, L139Q counted along it
Sequence of profilin-1 E117G (ALS-associated variant) (P07737 whole entry E117G): as the sequence (P07737 whole entry Q139L) above, with E117G, L139Q counted along it
Sequence of profilin-1 M114T (ALS-associated variant) (P07737 whole entry M114T): as the sequence (P07737 whole entry Q139L) above, with M114T, L139Q counted along it
Sequence of profilin-1 C71G (ALS-associated variant) (P07737 whole entry C71G): as the sequence (P07737 whole entry Q139L) above, with C71G, L139Q counted along it
Sequence of profilin-1 (wild-type) (UniProt P07737 1-140) (P07737 whole entry): as the sequence (P07737 whole entry Q139L) above, with L139Q counted along it
Sequence of profilin-1 (wild-type) (from UniProt P07737 1-140) (natural protein; other documents disagree on this pair) (P07737 whole entry): as the sequence (P07737 whole entry Q139L) above, with L139Q counted along it
Sequence of profilin-1 R136W (ALS-associated variant) (P07737 whole entry R136W): as the sequence (P07737 whole entry Q139L) above, with R136W, L139Q counted along it

| Kd [1] [nM] | Kd (profilin-1 (wild-type)) [nM] | binding result [2] | Kd [3] [nM] | binding result [4] | binding result [5] | Kd [6] [nM] | binding result [7] | Kd [8] [nM] | binding result [9] | Kd [10] [nM] | Molecule |
| --- | --- | --- | --- | --- | --- | --- | --- | --- | --- | --- | --- |
| 99.6 | – | – | – | – | – | – | – | – | – | – | profilin-1 (wild-type) (from UniProt P07737 1-140) (natural protein; other documents disagree on this pair) |
| 3720 | – | – | – | – | – | – | – | – | – | – | profilin-1 R88E (actin-binding impaired control) (from UniProt P07737 1-140) (natural protein) |
| – | 2710 | binds | 1650 | binds | binds | 2040 | binds | 2090 | binds | 3470 | IPPPPPLPGVASIPPPPPLPG (also: FITC, position not given here) [FITC-mDia1-derived poly-L-proline (PLP) peptide] |
